Residue numbers refer to the chain shown, from its start. One block for each molecule: values may come before it.
Legend:
[1] = target: PTH receptor type-1 (PTH1R), wild-type human (human) (UniProt Q03431)
[2] = target: PTH receptor type-1 (PTH1R), wild-type human (human) (UniProt Q03431); assay: radioligand binding
COS-7 cells = assay: Secretion of PTH into conditioned medium of transfected COS-7 cells; format: cell-based; conditions: for PTH level in conditioned medium, PTH(1-84) assay / PTH level in conditioned medium, ntPTH assay: 48 hours after transfection, mean ± SEM

Sequence of UniProt Q03431 (Q03431 27-593): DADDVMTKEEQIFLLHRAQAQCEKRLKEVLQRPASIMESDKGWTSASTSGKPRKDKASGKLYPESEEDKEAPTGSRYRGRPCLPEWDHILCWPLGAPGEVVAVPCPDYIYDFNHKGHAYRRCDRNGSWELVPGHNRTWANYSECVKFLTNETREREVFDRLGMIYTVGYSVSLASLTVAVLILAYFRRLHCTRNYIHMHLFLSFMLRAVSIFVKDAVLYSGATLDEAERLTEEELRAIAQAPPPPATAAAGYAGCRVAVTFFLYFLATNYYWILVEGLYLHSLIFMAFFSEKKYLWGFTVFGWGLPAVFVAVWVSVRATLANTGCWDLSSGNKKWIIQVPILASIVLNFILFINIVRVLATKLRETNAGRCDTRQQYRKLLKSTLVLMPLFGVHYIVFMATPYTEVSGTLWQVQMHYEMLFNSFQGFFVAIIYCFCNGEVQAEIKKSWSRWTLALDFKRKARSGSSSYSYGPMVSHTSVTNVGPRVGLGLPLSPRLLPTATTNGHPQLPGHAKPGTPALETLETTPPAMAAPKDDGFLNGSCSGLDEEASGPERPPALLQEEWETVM

PLC/IP signaling EC50, IP1 in GP-2.3 cells (Cisbio IP1 assay kit) [1]: 265 nM
cAMP signaling EC50, Glosensor luminescence in SGS-72 cells (SaOS-2-derived) [1]: 0.27 nM
IC50 [2]: 12.3 nM
Molecule: [Cys25]PTH(1-34) (peptide)

B1: [Cys25]PTH(1-84): mutant hormone with arginine-to-cysteine mutation at position 25 of mature PTH(1-84) (protein, UniProt P01270 32-115, looked up, variant R25C)
Parathyroid hormone: SVSEIQLMHNLGKHLNSMERVEWLCKKLQDVHNFVALGAPLAPRDAGSQRPRKKEDNVLVESHEKSLGEADKADVNVLTKAKSQ
modifications: Parathyroid hormone
PTH level in conditioned medium, PTH(1-84) assay (COS-7 cells): 1812 ± 175 pg/mL
PTH level in conditioned medium, ntPTH assay (COS-7 cells): 30.9 ± 23 pg/mL
secretion of mutant hormone into the medium (COS-7 cells; transfected COS-7 cells): efficiently secreted into the medium

B2: PTH(1-84): wild-type hormone expressed from plasmid encoding wild-type preproPTH in COS-7 cells (protein, UniProt P01270 32-115, looked up)
Parathyroid hormone: B1 Parathyroid hormone with C25R
modifications: Parathyroid hormone
PTH level in conditioned medium, PTH(1-84) assay (COS-7 cells): 1812 ± 94 pg/mL
PTH level in conditioned medium, ntPTH assay (COS-7 cells): 2285 ± 277 pg/mL

Source: PMC4580526 (Journal of bone and mineral research : the official journal …, 2015)
